Reference: patent US20040023341A1 (ZymoGenetics, published 2004)

Experiments:
[1] = biological target: IL-TIF protein (SEQ ID NO:3) (human) (UniProt Q9GZX6); test: cell-based or functional assay
[2] = biological target: T1, CRF2-4/zcytor11 heterodimeric receptor on BaF3/CRF2-4/zcytor11 cells (human, UniProt Q08334 20-325); test: cell-based or functional assay
T1 sequence 1: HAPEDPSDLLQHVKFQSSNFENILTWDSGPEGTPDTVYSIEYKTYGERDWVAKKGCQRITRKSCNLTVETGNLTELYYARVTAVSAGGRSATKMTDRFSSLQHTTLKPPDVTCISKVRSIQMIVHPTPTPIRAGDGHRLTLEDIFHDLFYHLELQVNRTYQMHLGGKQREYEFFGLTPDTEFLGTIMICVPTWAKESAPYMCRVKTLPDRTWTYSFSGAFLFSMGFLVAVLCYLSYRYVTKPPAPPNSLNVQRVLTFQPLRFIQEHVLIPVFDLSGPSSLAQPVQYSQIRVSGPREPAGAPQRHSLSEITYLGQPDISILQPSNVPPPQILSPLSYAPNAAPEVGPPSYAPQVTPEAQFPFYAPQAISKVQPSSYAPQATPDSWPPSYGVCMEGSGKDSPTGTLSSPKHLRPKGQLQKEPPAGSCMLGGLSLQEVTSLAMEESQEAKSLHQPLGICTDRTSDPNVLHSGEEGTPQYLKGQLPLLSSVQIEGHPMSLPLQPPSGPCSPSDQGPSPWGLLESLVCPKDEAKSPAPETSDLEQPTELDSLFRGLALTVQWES
T1 sequence 2: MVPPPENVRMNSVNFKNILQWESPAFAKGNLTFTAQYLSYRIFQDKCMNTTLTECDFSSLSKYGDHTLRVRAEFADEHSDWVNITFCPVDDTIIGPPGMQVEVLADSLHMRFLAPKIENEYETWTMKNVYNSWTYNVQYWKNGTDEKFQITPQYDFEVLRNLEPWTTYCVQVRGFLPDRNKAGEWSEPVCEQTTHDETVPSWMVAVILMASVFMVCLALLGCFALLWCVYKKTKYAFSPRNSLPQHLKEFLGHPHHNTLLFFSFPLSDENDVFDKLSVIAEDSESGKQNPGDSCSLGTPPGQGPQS

## CRF2-4/zcytor11-Fc4 soluble heterodimer receptor (Fc fusion)
[1]
  concentration at which inhibition of IL-TIF-induced proliferation was barely detectable: 63 ng/mL
  concentration giving complete inhibition of IL-TIF-induced proliferation: 8 µg/mL
  concentration giving partial inhibition of IL-TIF-induced proliferation: 0.125 to 4 µg/mL

B1: IL-TIF protein (SEQ ID NO:3) (ligand)
chain: APISSHCRLDKSNFQQPYITNRTFMLAKEASLADNNTDVRLIGEKLFHGVSMSERCYLMKQVLNFTLEEVLFPQSDRFQPYMQEVVPFLARLSNRLSTCHIEGDDLHIQRNVQKLKDTVKKLGESGEIKAIGELDLLFMSLRNACI
[2]
  proliferation of BaF3/CRF2-4/zcytor11 cells (Alamar Blue) at 100 pg/ml IL-TIF: 13 fold

B2: IL-TIF-CEE polypeptide purified from BHK 570 cells (ligand)
chain: APISSHCRLDKSNFQQPYITNRTFMLAKEASLADNNTDVRLIGEKLFHGVSMSERCYLMKQVLNFTLEEVLFPQSDRFQPYMQEVVPFLARLSNRLSTCHIEGDDLHIQRNVQKLKDTVKKLGESGEIKAIGELDLLFMSLRNACIEYMPME
[2]
  proliferation of BaF3/CRF2-4/zcytor11 cells (Alamar Blue), fold induction at 0.06 ng/ml IL-TIF-CEE: 2 fold
  proliferation of BaF3/CRF2-4/zcytor11 cells (Alamar Blue), fold over background at 50 ng/ml IL-TIF-CEE: ~15 fold
